Source: the DeepSol protein solubility set

experiment: soluble on expression in E. coli; label from the status in PepcDB or PDB records

Row | Sequence | soluble on expression in E. coli
1 | MGSDKIHHHHHHVTSLISVKRLNKSFPGVRALHEVQFELMAGEVHALMGENGAGKSTLMKILAGVYTRDSGEILYDGQPVEFLSPRDAQAVGVGIIHQELQLMNHLTVAQNIFIGREPRGRLGLLLDEDRLNAQAAAILARMHVSLDPRAVVGALTVARQQMVEIAKALSFDSRVLIMDEPTSALNDAEIAELFRIIRELKSRGVGIVYISHKMDELKQIADRVTVMRDGEYVATVAARDTSVEAIIGMMVGRTLTDIAPSHSVADQGEIALEVRNLNAGPLVRDVSFALRKGEILGFAGLMGAGRTEVARAVFGADPVESGEIVVNGARATIRTPSDAVAHGIGYLSEDRKRFGLATGMDVESNIVMSNLRKFLSLNFFLRRAQIRRTASHFISLLGIRTPSATQAVRLLSGGNQQKIVIAKWLERDCDVLFFDEPTRGIDVGAKNEIYKLLRSLAGEGKAVVMISSELPEILRMSDRVIVMCEGRITGELSAAEATQERIMHLATRRETLKTAA | not soluble
2 | MGSDKIHHHHHHVVVMSKVLLNIGCADVDKPGYINVDARKTKVTHLVSNAWDLDCFEENSVHEIYSRHMLEHLNPEYAKLALQKWFYILEPEGKLVVIVPDIEFHARQLLGVSRSSFGDQMEHAFAGFWGWREKERGGSDFDAHQWGYTVATLENEIGAVGFERIERVVEGVDSEPWHLQMTARKPMTSLCCPMDFRGPFP | not soluble
3 | MGSDKIHHHHHHVWNDRVELSGKCEYALLALIELARGHSNGEPQQIKQLADRQNIPDRYLEQLLATLRRGGIVRSVRGARGGYLLAREPWQISMQDVVHCIDGTEMQRTEAIDQQSVTIERQILVDINVELCKAVEDVLAAYSLQDLLEIRENRASTDLMYYI | not soluble
4 | MGSDKIHHHHHHVYQDLSRFSMPADFRGKPGWYVQLWWVVQALLFHPSPQIMYGWRRLLLRAFGAQIGKGVIIRPSAQITYPWKLAIGDYAWIGDEVVLYTLGNITIGKNAVVSQRSYICTGSHDFKKEAFDIFSKPIIIDDECWLATDVFVGPGVKISKGIVIGARSSVYKNIEATPGIYTGNPATRVGDR | not soluble
5 | MGSDKIHHHHHHYQQQYKMAVHVTPESENDPEWPSKKKWFDASEWLSTPQYIKINDFYVINTRYVPIGDLNSDQIIFYLKKGINGSEKRFSELSVLSDLDNQEFRELMKDKLSSEYLETQFEKETLTPTIDFFLIYFIYNNKRYEVPIRREYSGNKYHYWVLEGSVKKAGYWHERFPTSYSYRKYLNK | not soluble
6 | MGSKISIINHINTIRYYLKKNEVEDKVEDPAGAAEPESTEAFGTFISPSTGMEFIMAPAGEFLMGSSPEEKGRSYSESPVHRVTIKNPFYIGKYQVTQKQWKTIMGTSPSNFNEDFRPVELVSWEDVQEFIGKLNAMENTTKYRLPSEAEWEYACRAGKQSRYFFGEDESKLGDYAWYARNAGRKTHPAGRKKPNRWGLYDMCGNVWEWVQDSWHEDYNGAPSDGSAWEDGNSSNRVSRGGSWYCSTNSCRSASRFSREPEKHLANLGFRLVKELLEHHHHHH | not soluble
7 | MGSLLSTPEGSNPIGKAIGFLSQRKRPAVELQDDFEPEVKVQRTCEVQDEEAEEENIEFEHEIDEEEIEEQDEIVHEQSENDQNLKDSDEKKNEIVALEKSTEKDEELPIPEKEAQVDQEDTLENLFEKETESNNTNEQQENVETNDTTSNFDLNEAEERVDVFSNGLLTSIQSTQPEIIA | soluble
8 | MGSLRLLADIQGEDLESLYGYAKQLFDGGEIAAARNVYQLLSTLDHWNFDYLLALGLCHQRLGAHNEAVVCFGRAGLIKVDDPRAAFYAGISYRLDGNAEYASKAFKAAINWCGEQIDYQAIKASAVDMLALQQEEVPLEHHHHHH | not soluble
9 | MGSMAHSDGIFKKEQAMCLEKIQRANELMGFNDSSPGCPGMWDNITCWKPAHVGEMVLVSCPELFRIFNPDQDMGVVSRNCTEDGWSEPFPHYFDACGFDEYESET | soluble
10 | MGSMSMNAEQTVAELIARSNRLGSDPKNTNYAGGNTSAKGTDTDPVTGQPVELLWVKGSGGDLGTLTENGLAVLRLDRMRALVDVYPGVEREDEMVAAFDYCLHGRGGAAPSIDTAMHGLVDAAHVDHLHPDSGIALATAADGEALTKQIFGDRVVWVPWRRPGFQLGLDIADIKRRNPQAIGTILGGHGITAWGSTSAEAEAHSLEIIETAERYIAENGRPEPFLEHHHHHH | not soluble
11 | MGSRASTLLRDEELEEIKKETGFSHSQITRLYSRFTSLDKGENGTLSREDFQRIPELAINPLGDRIINAFFSEGEDQVNFRGFMRTLAHFRPIEDNEKSKDVNGPEPLNSRSNKLHFAFRLYDLDKDDKISRDELLQVLRMMVGVNISDEQLGSIADRTIQEADQDGDSAISFTEFVKVLEKVDVEQKMSIRFLHKLAAALEHHHHHH | soluble
